Assay results from patent US20130330346A1 (Novartis, published 2013).
Substitutions are numbered along the chain they refer to. Read-outs that look alike come from different tables or passages of the source. Ends that are not written are not given here.

T1: Human CXCR2 (human, UniProt P25025 1-360)
T1 construct: Some cell lines carry an N-terminal 3xHA tag; also called hCXCR2; huCXCR2
T1 sequence: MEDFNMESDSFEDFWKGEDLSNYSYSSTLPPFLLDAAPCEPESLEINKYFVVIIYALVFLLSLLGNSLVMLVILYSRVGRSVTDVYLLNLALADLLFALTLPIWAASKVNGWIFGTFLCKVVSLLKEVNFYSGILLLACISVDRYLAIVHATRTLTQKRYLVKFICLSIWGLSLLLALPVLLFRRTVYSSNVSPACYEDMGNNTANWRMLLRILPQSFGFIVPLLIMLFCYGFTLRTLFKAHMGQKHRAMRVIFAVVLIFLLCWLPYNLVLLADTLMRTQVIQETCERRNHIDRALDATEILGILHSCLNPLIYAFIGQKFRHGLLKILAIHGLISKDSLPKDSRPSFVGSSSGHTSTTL

T2: Cynomolgus CXCR2 (cynomolgus, UniProt Q28519 3-353 (rhesus entry))
T2 chain: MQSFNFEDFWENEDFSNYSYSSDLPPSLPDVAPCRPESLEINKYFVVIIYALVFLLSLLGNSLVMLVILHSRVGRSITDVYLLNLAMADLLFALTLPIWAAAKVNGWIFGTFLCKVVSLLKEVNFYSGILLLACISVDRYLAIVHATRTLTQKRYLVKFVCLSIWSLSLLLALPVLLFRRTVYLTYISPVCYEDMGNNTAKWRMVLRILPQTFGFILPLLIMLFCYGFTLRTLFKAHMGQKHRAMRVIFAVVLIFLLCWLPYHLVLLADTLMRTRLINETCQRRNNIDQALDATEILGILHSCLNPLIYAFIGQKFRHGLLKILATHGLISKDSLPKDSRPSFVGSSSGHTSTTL

T3: Human 1to19 peptide (human)
T3 construct: First 19 N-terminal amino acids of human CXCR2, captured on neutravidin; also called human CXCR2 1 to19 peptide; 1-19 Nter peptide
T3 peptide: MEDFNMESDSFEDFWKGED-biotin

B1: 127D1 (VHH)
VHH: EVQLVESGGGLVQAGESLRLSCAASGSTFDFKVMGWYRQPPGKQREGVAAIRLSGNMHYAESVKGRFTISKANAKNTVYLQMNSLRPEDTAVYYCKVNIRGQDYWGQGTQVTVSS
notes: Tested as periplasmic extract (pAX50) and as purified His6-tagged protein (pAX100); also called 127D01; not shown: C-terminal c-myc tag and His6 tag coded by the vector
B2: 2B2 (VHH)
VHH: EVQLVESGGELVQPGGSLRLSCAASGSILTINAMGWYRQAPGKQRELVVRRTRGGSTTYQDSVKGRFTISADIAKKTMYLQMNSLKPEDTAVYYCMLDDRGGVYWGQGTQVTVSS
notes: Tested as periplasmic extract (pAX50) and as purified His6-tagged protein (pAX100); also called 002B02; not shown: C-terminal c-myc tag and His6 tag coded by the vector
B3: 163D2 (VHH)
VHH: EVQLVESGGGLVQAGGSLRLSCAASGRTFSDYAMGWFRQAPGKEREFVAAITWNGGRVFYTASVKGRFTISRDNAKNTMYLQMNSLKPEDTAVYYCAADKDRRTDYLGHPVAYWGQGTQVTVSS
notes: Tested as periplasmic extract (pAX50) and as purified His6-tagged protein (pAX100); also called 163D02; not shown: C-terminal c-myc tag and His6 tag coded by the vector
B4: CXCR20086 (VHH)
VHH: B3 VHH with V5L, A14P, A75S, M79L, K87R, Q119L
B5: 97A9 (VHH)
VHH: EVQLVESGGGLVQPGGSLRLSCVASGSIVRINTMGWYRQTPGKQRELVADITSGGNINYIDAVKGRFTISRDNTKNTVYLQMNSLKPEDTAVYYCNAEIVVLVGVWTQRARTGNYWGQGTQVTVSS
notes: Tested as periplasmic extract (pAX50) and as purified His6-tagged protein (pAX100); also called 097A09; not shown: C-terminal c-myc tag and His6 tag coded by the vector

Experiments:
Human CXCR2 [1] = biological target: T1, Human CXCR2; test: FACS, periplasmic extract vs FMAT Blue Gro-α
Procedure: Periplasmic extracts (as described above) were analyzed on FACS for competition with Gro-α in binding to human CXCR2. 2×10⁵ cells were incubated with a ½ dilution of periplasmic extracts in FACS buffer (PBS+10% fetal bovine serum (Sigma, F7524)) for 30 minutes at 4° C. Then, an equal volume of 6 nM of FMAT Blue-labeled human Gro-α in FACS buffer was added and incubation was continued for another 30 minutes at 4° C. in the dark. Cells were then washed three times in FACS buffer and finally resuspended in FACS buffer. Dead cells were stained with propidium iodide (Sigma, P4170). Samples were then analyzed on a FACSarray (BD Biosciences).

Human CXCR2 [2] = biological target: T1, Human CXCR2; test: cell-based or functional assay
Cynomolgus CXCR2 [3] = biological target: T2, Cynomolgus CXCR2; test: cell-based or functional assay
Human CXCR2 [4] = biological target: T1, Human CXCR2; test: cell-based or functional assay; remark: listed apart in the source
Cynomolgus CXCR2 [5] = biological target: T2, Cynomolgus CXCR2; test: cell-based or functional assay
Human 1to19 peptide = biological target: T3, Human 1to19 peptide; test: ELISA, periplasmic extract on biotinylated peptide
Procedure: In another setup, periplasmic extracts were analyzed for binding to human 1 to 19 peptide by ELISA. MaxiSorb plates (Nunc, 430341) were coated for two hours with neutravidin followed by one hour blocking (PBS, 1% casein). Then 100 nM biotinylated human 1 to 19 peptide was added to these plates for one hour (PBS, 0.1% casein, 0.05% tween20) followed by one hour incubation with 10-fold dilutions of periplasmic extracts. Unbound periplasmic extracts were washed away (PBS supplemented with 0.05% tween20) and bound Nanobodies were detected using mouse anti-myc (Roche, 11667149001) followed by rabbit anti-mouse-HRP conjugate (Dakocytomation, P0260). Table 8 summarizes the ratios of the binding signals of anti-CXCR2Nanobodies over an irrelevant control Nanobody.

Human CXCR2 [6] = biological target: T1, Human CXCR2; test: cell-based or functional assay; remark: listed apart in the source
Human CXCR2 [7] = biological target: T1, Human CXCR2; test: FACS hGro-α competition
Cynomolgus CXCR2 [8] = biological target: T2, Cynomolgus CXCR2; test: FACS hGro-α competition
Human CXCR2 [9] = biological target: T1, Human CXCR2; test: cell-based or functional assay; remark: listed apart in the source
Cynomolgus CXCR2 [10] = biological target: T2, Cynomolgus CXCR2; test: cell-based or functional assay
Human CXCR2 [11] = biological target: T1, Human CXCR2; test: FACS competition vs 3 nM FMAT-Blue Gro-α
Procedure: (§1) Purified monovalent anti-CXCR2Nanobodies were titrated against 3 nM FMAT-Blue-labeled Gro-α in the FACS ligand competition assay on human and cynomolgus CXCR2 (Table 10). On human CXCR2, blocking potencies range between double digit nM and sub-nM whereas on cynomolgus CXCR2, they range between single and double digit nM.

Cynomolgus CXCR2 [12] = biological target: T2, Cynomolgus CXCR2; test: FACS competition vs 3 nM FMAT-Blue Gro-α
Procedure: as §1

Human CXCR2 [13] = biological target: T1, Human CXCR2; test: cell-based or functional assay; remark: listed apart in the source
Cynomolgus CXCR2 [14] = biological target: T2, Cynomolgus CXCR2; test: cell-based or functional assay
Human CXCR2 [15] = biological target: T1, Human CXCR2; test: FACS hGro-α competition; remark: listed apart in the source
Cynomolgus CXCR2 [16] = biological target: T2, Cynomolgus CXCR2; test: FACS hGro-α competition
Human CXCR2 [17] = biological target: T1, Human CXCR2; test: FACS hGro-α competition; remark: listed apart in the source
Cynomolgus CXCR2 [18] = biological target: T2, Cynomolgus CXCR2; test: FACS hGro-α competition
Human CXCR2 [19] = biological target: T1, Human CXCR2; test: cell-based or functional assay; remark: listed apart in the source
Cynomolgus CXCR2 [20] = biological target: T2, Cynomolgus CXCR2; test: cell-based or functional assay
Human CXCR2 [21] = biological target: T1, Human CXCR2; test: FACS hGro-α competition; remark: listed apart in the source
Cynomolgus CXCR2 [22] = biological target: T2, Cynomolgus CXCR2; test: FACS hGro-α competition
Human CXCR2 [23] = biological target: T1, Human CXCR2; test: cell-based or functional assay; remark: listed apart in the source
Cynomolgus CXCR2 [24] = biological target: T2, Cynomolgus CXCR2; test: cell-based or functional assay

| Binder | FACS Gro-α competition (% inhibition) (Human CXCR2 [1]) | Human Chemotaxis IC50 (GROα) (Human CXCR2 [4]) | Human WBSC IC50 (rhGROα) (Human CXCR2 [4]) | Cynomologus WBSC IC50 (rhGROα) (Cynomolgus CXCR2 [5]) | ratio of binding signal relative to blank control (Human 1to19 peptide) | FLIPR % inhibition max (Human CXCR2 [9]) | FLIPR IC50 (GRO-α induced calcium release) (Human CXCR2 [9]) | [35S]GTPγS % inhibition max (GRO-α) (Human CXCR2 [9]) | [35S]GTPγS IC50 (GRO-α) (Human CXCR2 [9]) | FLIPR % inhibition max (Cynomolgus CXCR2 [10]) | FLIPR IC50 (GRO-α induced calcium release) (Cynomolgus CXCR2 [10]) | % inhibition of max (Human CXCR2 [11]) | IC50 (Human CXCR2 [11]) | % inhibition of max (Cynomolgus CXCR2 [12]) | IC50 (Cynomolgus CXCR2 [12]) | IC50 (Human CXCR2 [17]) | IC50 (Cynomolgus CXCR2 [18]) | FLIPR hGro-α IC50 (Human CXCR2 [19]) | FLIPR hGro-α IC50 (Cynomolgus CXCR2 [20]) | other results |
| --- | --- | --- | --- | --- | --- | --- | --- | --- | --- | --- | --- | --- | --- | --- | --- | --- | --- | --- | --- | --- |
| B1 | 46.7% | 0.014 µM | 0.0049 µM | > 100 nM | 39.5 ratio | 100% | 0.0219 µM | 66% | 0.0125 µM | 100% | 0.753 µM | 61.1% | 0.000309 µM | 82.6% | 0.00441 µM |  |  |  |  | FLIPR hGro-α IC50 (Human CXCR2 [2]): 0.015 µM; FLIPR hGro-α IC50 (Cynomolgus CXCR2 [3]): 1.1 µM; IC50 (M) at 5 nM GROα (inhibition of GRO-α, FIG. 2) (Human CXCR2 [6]): 1.64e-09 M; IC50 (M) at 15 nM GROα (inhibition of GRO-α, FIG. 2) (Human CXCR2 [6]): 2.04e-09 M; IC50 (M) at 45 nM GROα (inhibition of GRO-α, FIG. 2) (Human CXCR2 [6]): 3.26e-09 M; IC50 (M) at 150 nM GROα (inhibition of GRO-α, FIG. 2) (Human CXCR2 [6]): 4.6e-09 M; IC50 (Human CXCR2 [7]): 0.00055 µM; IC50 (Cynomolgus CXCR2 [8]): 0.0061 µM |
| B2 | 38.1% | 0.212 µM | 0.0295 µM | > 100 nM | 58.6 ratio | 100% | 0.441 µM | 71.3% | 0.103 µM | 100% | 3.85 µM | 42.7% | 0.00207 µM | 64% | 0.0316 µM |  |  |  |  | FLIPR hGro-α IC50 (Human CXCR2 [13]): 0.65 µM; FLIPR hGro-α IC50 (Cynomolgus CXCR2 [14]): 24 µM; IC50 (Human CXCR2 [15]): 0.0013 µM; IC50 (Cynomolgus CXCR2 [16]): 0.035 µM |
| B3 | 86.8% |  | 0.0066 µM | > 100 nM | 0.5 ratio | 100% | 0.00191 µM | 100% | 0.0532 µM | 100% | 0.0372 µM | 96.4% | 0.00695 µM | 91% | 0.0148 µM | 0.0028 µM | 0.0071 µM | 0.066 µM | 0.092 µM |  |
| B4 |  |  |  |  |  |  |  |  |  |  |  |  |  |  |  | 0.002 µM | 0.0048 µM | 0.073 µM | 0.085 µM |  |
| B5 | 85.9% | 0.0485 µM | 0.0116 µM | > 100 nM | 0.8 ratio | 100% | 0.0399 µM | 100% | 0.0503 µM | 100% | 0.64 µM | 93.9% | 0.0172 µM | 53% | 0.0641 µM |  |  |  |  | IC50 (Human CXCR2 [21]): 0.012 µM; IC50 (Cynomolgus CXCR2 [22]): 0.063 µM; FLIPR hGro-α IC50 (Human CXCR2 [23]): 0.094 µM; FLIPR hGro-α IC50 (Cynomolgus CXCR2 [24]): 0.8 µM |
